Patent US20200384079A1, “Compositions of Fibroblast Growth Factor LIgands and Methods of Treating Patients Undergoing Ischemia-Reperfusion Therapy” (University of Cincinnati, priority 2017, published 2020)
“And” between values parts separate entries of the source, which are not always exact repeats. Equal values may be shown once. “Also recorded” adds a separate entry of the source.

What was measured:
[1] = Blood clotting time (tail nick); assay type: in vivo, rat; details: for Clotting time: 15 mins post treatment, single agent; for blood clotting time post-treatment (in words): baseline vs 15 minutes after drug treatment; for effect on anticoagulant activity of heparin (in words): co-administered with unfractionated heparin
Protocol: In sets of experiments, blood clotting time was detected at baseline and 15 minutes after drug treatment. In brief, a nick 1-2 mm depth was made at 5 cm and 3 cm of the proximal tail for baseline and post-drug blood clotting time, respectively; the tail nick was blotted with 4×4 gauze every 15 seconds until bleeding totally stopped, and blood clotting time was recorded from the onset of bleeding until it stopped.
Heparan sulfate proteoglycans or heparin regulates the bioavailability of FGFs. In order to develop a “cardioprotective” FGF as a therapeutic against ischemic heart disease, it was necessary to elucidate the efficacy of these cardiac FGFs in the presence of heparin treatment. Therefore, native rhFGFs (FGF 1, 2, 4, or 5) or vehicle are infused intravenously (at dose indicated above) in conjunction with unfractionated (12 units/kg/hr, i.v.) or low molecular weight heparin (enoxaparin 1 mg·kg, s.c.) during the first 15 minutes of reperfusion (FIG. 12A), and post-ischemic recovery of cardiac function and the degree of myocardial infarction is assessed. […] Unfractionated or low molecular weight heparin is administered alone during early reperfusion to elucidate the cardioprotective effects of heparins against IR injury. Whether FGF administration alters heparin activity is evaluated. To assess this potential interaction, activated clotting time (ACT) is assessed in vehicle-treated or FGF-treated groups in the absence or presence of heparin co-administration. Baseline and 15 minute post-drug treatment ACT is determined. It has been established that a heparin response occurs within 1 minute after an intravenous dose in humans and that no more time is required to achieve a predicted ACT.

[2] = tested on: in vivo rat model of myocardial infarction; test: In vivo rat ischemia-reperfusion model, infarct size (TTC); set-up: species or system Sprague Dawley rats; details: for effect on infarct size / cardioprotection (in words): FGF given at reperfusion with heparin co-therapy; for effect on infarct size (in words): given at reperfusion, no heparin co-therapy; for reduction in infarct size compared to saline/vehicle control: given i.v. at reperfusion alone (FGF 10 μg/kg; heparin 12 U/kg/hr)
Protocol: CVR-2016-799R1 signaling and the other two sets were to evaluate the pharmacokinetic properties of native FGF1 and modified FGF1 (FGF1^ΔHBS). The first set of experiments was for the ischemia/reperfusion study in which animals were divided into six groups as follows: (1) saline group: saline treatment given intravenously for 10 minutes immediately upon reperfusion, (2) heparin group: heparin, 60 U/kg intravenous (i.v.) bolus, given immediately at reperfusion+12 U/kg/hr i.v. infusion for 120 minutes of reperfusion, (3) FGF1 group: FGF1, 10 μg/kg i.v. infusion, given for 10 minutes immediately at reperfusion, (4) FGF1+heparin: heparin, 60 U/kg bolus, given immediately upon reperfusion followed by FGF1, 10 μg/kg i.v. infusion, given for 10 minutes and 12 U/kg/hr i.v. infusion given for 110 minutes of reperfusion, (5) modified FGF1 (FGF1^ΔHBS) group: FGF1^ΔHBS, 10 μg/kg i.v. infusion, given for 10 minutes, or (6) FGF1^ΔHBS+heparin: heparin, 60 U/kg bolus, given immediately at reperfusion followed by FGF1^ΔHBS, 10 μg/kg i.v. infusion, given for 10 minutes and 12 U/kg/hr i.v. infusion for 110 minutes of reperfusion. All rats were subjected to 30 minutes of regional ischemia and 120 minutes of reperfusion. Drugs were administered at the onset of reperfusion via the jugular vein (FIG. 2A). […] A total of ninety-six rats was completed for the I/R study. Sample size for each group ranged from 9-16 depending on the power analysis. A total of thirty-five rats were excluded from the study based on the lack of cyanosis of the heart or typical elevation of the ST segment in the electrocardiogram during ischemia, and death from malignant arrhythmia. For the biodistribution or FGF1 signaling study, rats were randomly divided into six groups as described above (FIG. 2B). Following drug treatment (immediately following 15 minutes of treatment or 105 minutes post-treatment at the point which mimics the length of time of reperfusion), solid organs and blood (see sections “Tissue collection for exogenous FGF1 biodistribution” and “Cardiac preparation to detect the activation of FGF1 downstream molecules”) were collected. A total of 33 rats were used for biodistribution and FGF1 signaling studies, and 3 rats were excluded due to anesthetic overdose. Also, a total of 8 plasma samples were excluded because of hemolysis. For elimination half-life of native FGF1 and FGF1^ΔHBS, 12 rats were randomly divided into two groups and treated intraperitoneally with either FGF1 form as described in the section “Pharmacokinetic evaluation of exogenous FGF1 or FGF1^ΔHBS ”.
The in vivo I/R model was established by ligating and loosening the left anterior CVR-2016-799R1 descending artery (LAD) previously described by our laboratory. In brief, rats were anesthetized with thiobutabarbital sodium salt hydrate, Inactin® hydrate (100 mg/kg, i.p., Sigma-Aldrich), and intubated and artificially ventilated via a rodent respirator (respiratory rate: 75 strokes/minute; tidal volume: 3 mL; Model 683, Harvard, USA). The heart was exposed through a left thoracotomy and pericardiotomy, and a 6-0 silk suture was placed around the left anterior descending (LAD) coronary artery. After equilibration for 15 minutes, hearts were subjected to 30 minutes of ischemia by ligating the LAD via a snare occluder and reperfusion occurred for 120 minute via loosening the snare occluder. The appearance of cyanosis of the heart and significant ST-segment elevation in the electrocardiogram were used to verify successful ligation.
At the end of the ischemia-reperfusion injury study, the LAD was re-occluded with the suture used previously for the establishment of ischemia. 5% Evans blue dye solution was given via the jugular vein to define the area-at-risk (AAR). Then, the heart was arrested in diastole with 1 mL of 15% potassium chloride, and the animal was euthanized with an anesthetic overdose followed by a bilateral pneumothorax for removal of the heart. […]

[3] = as E6 but FGF 10 μg/kg i.v. in the presence of heparin co-administration
[4] = rat, 30 min ischemia/120 min reperfusion, given i.v. at reperfusion alone (FGF 10 μg/kg; heparin 60 U/kg bolus + 12 U/kg/hr)

Row | Molecule | Clotting time [1] | blood clotting time post-treatment (in words) [1] | effect on anticoagulant activity of heparin (in words) [1] | infarct size (% infarct, percentage of area-at-risk) [2, 3] [%] | infarct size (% infarct, percentage of area-at-risk) [2, 4] [%] | effect on infarct size / cardioprotection (in words) ([2]; rat, listed as native FGF1) | effect on infarct size (in words) ([2]; rat) | reduction in infarct size compared to saline/vehicle control ([2]; rat) | reduction in infarct size compared to saline/vehicle control ([2]; rat, listed as native FGF1) | effect on infarct size / cardioprotection (in words) ([2]; rat) | fold more efficacious in reducing infarct size than native FGF1 ([2]; rat, same dose at reperfusion) [fold]
1 | FGF1: native recombinant human fibroblast growth factor 1 | 15 mins post rhFGF1 treatment: 144 +/− 21 sec (n = 7) | no significant difference in blood clotting time | does not alter the desired anticoagulant activity of heparin; also recorded: did not alter heparin's anticoagulant properties | 42 | 35 | markedly attenuated in the presence of heparin; also recorded: lower in the presence of heparin | significantly reduced infarct size compared to saline | 31% | 39% and 31% | – | –
2 | FGF1^ΔHBS: FGF1 mutant carrying the K127D/K128Q/K133V triple mutation in its HS-binding region; reduced heparin-binding affinity (protein) MAEGEITTFTALTEKFNLPPGNYKKPKLLYCSNGGHFLRILPDGTVDGTRDRSDQHIQLQLSAESVGEVYIKSTETGQYLAMDTDGLLYGSQTPNEECLFLERLEENHYNTYISKKHAEKNWFVGLDQNGSCVRGPRTHYGQKAILFLPLPVSSD | 15 mins post rhFGF^ΔHBS treatment: 169 +/− 10 sec (n = 10) | no significant difference in blood clotting time | did not alter heparin's anticoagulant properties | 32 | 22 | – | marked reduction in infarct size compared to the native form of FGF1; also recorded: markedly lowered infarct size compared to FGF1 | 62% and 60% | – | minor, and no statistically significant, inhibition; also recorded: did not reduce the cardioprotective effect; also recorded: not altered in the presence of heparin | ~2
